We go through five molecules from US20170049848A1, “Target for Firmicutes and Related Bacteria: The PRP Protease” (VIRGINIA COMMONWEALTH UNIVERSITY, priority 2014, published 2017).

Primed or numbered codes have the meaning given here. Where no end group is shown, it is not given here. [ ]: non-standard residue; d: D form. Dnp″ = dinitrophenol quencher on C-terminus; 2Abz = Nc1ccccc1C(=O)O

One data set has as its system S. aureus strain SA178RI. The experiment in a line: Growth curves of S. aureus strains over-expressing Prp, L27 variants or peptide. It is filed as cell-based, Staphylococcus aureus. The note with it: T7 plasmid in SA178RI, induced with IPTG, 16 hours at 32° C.; strain still contains native L27 and Prp; compared with wild-type protein or empty vector. From the text: Bacterial Culture. All S. aureus strains used in this work are derivatives of the phage-cured, restriction-defective strain RN4220 (Kreiswirth, 1983). The S. aureus expression strain SA178RI carries a T7 RNA polymerase expression cassette under lac operator control (D'Elia, 2006). The plasmid used for expression in SA178RI was pG164, an E. coli-S. aureus shuttle vector carrying the T7 late promoter into which a lac operator, a multiple cloning site, an optimized gram-positive ribosome binding site, and a constitutively expressed copy of the lac repressor gene were introduced (D'Elia, 2006). S. aureus strains were grown in Trypticase Soy Broth (TSB) (Remel, Lenexa, Kans.) or Brain Heart Infusion (BHI) (Remel, Lenexa, Kans.) at 32° C.
For growth curve analysis of mutant over-expression strains, overnight cultures were inoculated directly into media containing inducer and appropriate antibiotics (TSB with 2 μg/ml tetracycline, 30 μg/ml chloramphenicol and 1 mM IPTG) and monitored at OD600 for 16 hours in a 96 well plate format Biotek Microplate reader.
Both L27 and Prp are essential in S. aureus. One common approach is to examine the effects of mutations in essential genes is to over-express mutant allele and assess the resulting phenotypes. […]

The subject of data set [1] is S. aureus ribosome assembly (70S ribosomes, 50S subunit). The experiment in a line: Polysome analysis (sucrose gradient ribosomal subunit profiles) of over-expression strains. It is filed as cell-based, Staphylococcus aureus. The note with it: overexpression in S. aureus SA178RI, compared with empty vector. How it is done: Polysome analysis. Overnight cultures of strains for polysome analysis were inoculated into a flask of media containing inducer and appropriate antibiotics (TSB with 2 μg/ml Tet, 30 μg/ml Chl and 1 mM IPTG) beginning at a 1:100 dilution and grown until they reached a Klett reading of 90 or for 4 hours. As noted above, S. aureus expressing Prp C34A will not grow above Klett 50 for over 8 hours, so this strain was grown at a double volume compared to the others so that an equivalent number of cells could be harvested. Cell pellets from at least 100 ml of culture were resuspended in buffer PA (20 mM Tris pH 7.8, 100 mM NH4Cl, 10 mM MgCl2, 6 mM beta mercaptoethanol), broken by bead beating and then cleared by centrifugation for 10 minutes at 13000 rpm at 4° C. The clarified cell lysates were applied to the top of 10-40% sucrose gradients in buffer PA. The gradients were centrifuged for 17 hours at 19000 rpm on an SW-28 rotor at 4° C. Gradients were analyzed for absorbance at 254 nm using a Biocomp Piston Gradient Fractionator with a BIORAD Econo UV Monitor with a Full Scale of 1.0. Data were recorded using DataQ DI-158-UP data acquisition software, as has been previously reported (O'Farrell, 2012). Areas under each peak were calculated using the trapezoid method. […]

A short description of data set [2]: Stability of quenched peptide substrate in solution. It is filed as physicochemical. The settings on record: monitored in solution over time, without enzyme. From the text: (§1) Development of Prp Assay In order to study Prp enzymology in vitro, an assay was designed using a quenched fluorescent peptide substrate derived from the cleavage motif on L27. The peptide KLNLQFFASKK (GI:15927225; SEQ ID NO:1) was chosen for its content of hydrophilic residues and fluorophore 2-amino benzoic acid (2-abz) was conjugated to the N terminus, with a dinitrophenol (Dnp) quencher conjugated to the C-terminus. The resulting peptide substrate (2abz-KLNLQFFASKK-Dnp; SEQ ID NO:1) was ordered from United Peptide in Herndon, Va. (now United Biosystems). The substrate was initially resuspended to 2 mM with a buffer containing 25 mM Tris pH8 and 300 mM NaCl. Fluorescence was measured using an excitation wavelength of 325 nm and an emission wavelength of 425 nm using a Photon Technology International QuantaMaster steady-state fluorescent spectrometer. Prp was initially purified and analyzed as a His6-SUMO N-terminal fusion protein from plasmid pEW34. His6-SUMO fusions were also made of PrpC34A (pEW39) and PrpC34S (pEW40).
The amino acid sequence of the substrate was selected to maximize its hydrophilic residue content, aiming for the greatest possible peptide solubility. […] The assay allows us to determine Prp kinetics, and the effects of any mutants on the Km or Kcat.

The target of data set [3] is Staphylococcus aureus L27 F8A-F9A with C-terminal Myc and His6 tags (un-cleavable), Q2FXT0.
For data set [4], the system named is peptide substrate 2abz-KLNLQFFASKK-Dnp (L27 cleavage motif). The data set can be described thus: Quenched fluorescent peptide Prp assay. In kind it is biochemical, Staphylococcus aureus. The note with it: N-terminal His6-SUMO fusion proteins; excitation 325 nm, emission 425 nm.
Text: as §1, with “His6-SUMO fusions were also made of PrpC34A (pEW39) and PrpC34S (pEW40).” left out
In order to test the predictions that our model makes regarding residues important to substrate binding and catalysis and ultimately to search for inhibitors, it was necessary to design a high throughput-capable continuous fluorescent assay. […] In this type of assay, when the substrate is cleaved the fluorophore is released from its quenching partner and fluorescence readings at the fluorophore emission wavelength increase with time. […]

Data set [5] addresses T1, 2abz-KLNLQFFASKK-Dnp quenched fluorescent peptide substrate.
T1 chain: KLNLQFFASKK

In the case of MLKLNLQFF, in the data set on S. aureus strain SA178RI, the “effect on S. aureus growth upon overexpression” value is “pronounced lag in the middle of the exponential growth phase”. The “effect on ribosomal subunit profile” value in data set [1] was “no anomalies”.

Regarding “2abz-KLNLQFFASKK-Dnp ([2Abz]KLNLQFFASKK-{Dnp″}) [quenched fluorescent peptide substrate, 2-amino benzoic acid at N terminus, dinitrophenol quencher at C-terminus]”, the “stability of peptide in solution” value in data set [2] is “stable and did not self-cleave or change fluorescence over time”.

B1: Staphylococcus aureus Prp (phage-related ribosomal protease), wild type, untagged (protein)
chain: MITVDITVNDEGKVTDVIMDGHADHGEYGHDIVCAGASAVLFGSVNAIIGLTSERPDINYDDNGGHFHIRSVDTNNDEAQLILQTMLVSLQTIEEEYNENIRLNYK
With B1, the “N-terminal cleavage of L27 (Western blot)” value in data set [3] is “this protein with N-terminal residues […] was no longer cleaved by Prp via Western blot”.

B2: wild-type Prp: S. aureus phage-related ribosomal protease, cysteine protease that cleaves L27 (protein)
chain: MITVDITVNDEGKVTDVIMDGHADHGEYGHDIVCAGASAVLFGSVNAIIGLTSERPDINYDDNGGHFHIRSVDTNNDEAQLILQTMLVSLQTIEEEYNENIRLNYK
For B2, the “effect on ribosomal subunit profile” value in data set [1] is reported as “did not deviate significantly from empty vector”. Further, the “fluorescence increase / catalysis with quenched peptide substrate” value in data set [4] is listed as “fluorescence increase only occurred in the presence of wild type Prp”.

B3: His6-SUMO-Prp N-terminal fusion protein (wild type) (protein)
chain: MITVDITVNDEGKVTDVIMDGHADHGEYGHDIVCAGASAVLFGSVNAIIGLTSERPDINYDDNGGHFHIRSVDTNNDEAQLILQTMLVSLQTIEEEYNENIRLNYK
With B3, the “fluorescence increase in the quenched fluorescent peptide assay” value in data set [5] is reported as “fluorescence increase only occurred in the presence of wild type Prp fusion proteins”.
